{
  "source": "patent US7598225",
  "biological_target": "human HLA A2 molecules (human)",
  "test": "T2 cell binding assay, peptide at 50 ug/ml, surface HLA A2 stained with MAb A2,69, flow cytometry (no peptide: 127.25)",
  "conditions": "remark: other sources report otherwise",
  "data": [
    {"binder": "VISNDVCAQV", "note": "[PSA peptide 154-163]", "values": [
      {"measurement": "mean channel fluorescent intensity", "result": 182}
    ]}
  ]
}
